The text below walks through data of patent US20220259593A1, “CONTROL OF MAMMALIAN GENE DOSAGE USING CRISPR” (The Regents of the University of California, priority 2019, published 2022).

Where a chain is given by its changes, count along the chain named.

In the series the test system is K562 CRISPRi cells. Nature of the series: Constant region variant library pooled growth screen, K562. Type of series: cell-based, human. The settings on record: sgRNA constant region variants. The method in brief: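 Library of sgRNA constant-region variants, each paired with 36 targeting sequences (essential-gene and non-targeting), transduced in duplicate into K562 CRISPRi cells, puromycin-selected and grown 4–8 days at >2000× coverage. Activity per variant is its growth phenotype normalised to the same targeting sequence with unmodified constant region.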

[1] abbreviates: relative to the original, un-modified constant region cr995 (= 1).
Where [2] appears, read: activity relative to the original, un-modified constant region cr995.

B1: cr334 (nucleic acid)
guide: GTTTAAGAGCTAAGCTGGAAACAGCATAGCAAGTTTAAATAAGGCTAGTCCGTTATCAAGTGGAAACACTGGCACCAAGTTGGTGCT
modifications: listed as DNA, chemistry not fully specified
Take B1: under setting [1], the Mean relative activity is 1.025.

B2: cr121 (nucleic acid)
guide: B1 guide with A59T, G60C, T61A, G62T, C67A, A68T, C69G, T70A, A77G, T81C
modifications: listed as DNA, chemistry not fully specified
Turning to B2, the Mean relative activity under setting [1] is 1.014.

B3: cr020 (nucleic acid)
guide: B1 guide with G7T, G60C, G62T, C67A, C69G, A77G, T81C
modifications: listed as DNA, chemistry not fully specified
For B3, the Mean relative activity under setting [1] is on record as 1.02.

B4: cr408 (nucleic acid)
guide: B1 guide with G60C, G62T, A65G, C67A, C69G, G72A, A77G, T81C, C86T
modifications: listed as DNA, chemistry not fully specified
The molecule B4 yielded a Mean relative activity under setting [1] of 1.018.

B5: cr557 (nucleic acid)
guide: B1 guide with A19C, G60C, G62T, C67A, C69G, A77G, T81C
modifications: listed as DNA, chemistry not fully specified
B5 had a Mean relative activity under setting [1] of 1.018.

B6: cr283 (nucleic acid)
guide: B1 guide with G60C, G62T, C67A, C69G, G72A, A77G, T81C
modifications: listed as DNA, chemistry not fully specified
Take B6: under setting [1], the Mean relative activity is recorded as 1 .01760152.

B7: cr710 (nucleic acid)
guide: B1 guide with G60C, G62T, C67A, C69G, C75G, A77G, T81C, G83C
modifications: listed as DNA, chemistry not fully specified
Take B7: the Mean relative activity under setting [1] is listed as 1.021.

B8: cr140 (nucleic acid)
guide: B1 guide with G60T, T61C, G62T, C67A, A68G, C69A, A77G, T81C
modifications: listed as DNA, chemistry not fully specified
Regarding B8, the Mean relative activity under setting [1] is 1.023.

B9: cr019 (nucleic acid)
guide: B1 guide with G7C, G60C, G62T, C67A, C69G, A77G, T81C
modifications: listed as DNA, chemistry not fully specified
Under setting [1], B9 yielded a Mean relative activity of 1.019.

B10: cr948 (nucleic acid)
guide: B1 guide with G60C, G62T, C67G, C69G, A77G, T81C
modifications: listed as DNA, chemistry not fully specified
On to B10, for which the Mean relative activity under setting [1] worked out at 1.02.

B11: cr345 (nucleic acid)
guide: B1 guide with A21C, G60C, G62T, C67A, C69G, A77G, T81C
modifications: listed as DNA, chemistry not fully specified
As for B11, the Mean relative activity under setting [1] turned out to be 1.021.

B12: cr323 (nucleic acid)
guide: B1 guide with A32G, G60C, G62T, A65C, C67A, C69G, A77G, T81C
modifications: listed as DNA, chemistry not fully specified
Take B12: under setting [1], the Mean relative activity came to 1.02.

B13: cr978 (nucleic acid)
guide: B1 guide with G60C, G62T, C67A, C69G, C73A, C75A, A77G, T81C, G83T, G85T
modifications: listed as DNA, chemistry not fully specified
As to B13, the Mean relative activity under setting [1] worked out at 1.021.

B14: cr888 (nucleic acid)
guide: B1 guide with G60C, G62T, G63T, A65C, C67A, C69G, A77G, T81C
modifications: listed as DNA, chemistry not fully specified
Under setting [1], B14 displayed a Mean relative activity of 1.02.

B15: cr444 (nucleic acid)
guide: B1 guide with G60C, G62T, A65C, C67A, C69G, A77G, T81C
modifications: listed as DNA, chemistry not fully specified
Molecule B15 returned a Mean relative activity under setting [1] of 1.023.

B16: cr701 (nucleic acid)
guide: B1 guide with G60C, G62T, C67A, C69G, A77G, G79C, T81C
modifications: listed as DNA, chemistry not fully specified
For the molecule B16, the Mean relative activity under setting [1] amounted to 1.016.

B17: cr934 (nucleic acid)
guide: B1 guide with A47T, T56C, G60C, G62T, C67A, C69G, A77G, G79T, T81C
modifications: listed as DNA, chemistry not fully specified
The molecule B17 registered a Mean relative activity under setting [1] of 1.024.

B18: cr113 (nucleic acid)
guide: B1 guide with A55T, G60C, G62T, C67A, C69G, A77G, T81C
modifications: listed as DNA, chemistry not fully specified
Molecule B18 gave a Mean relative activity under setting [1] of 1.016.

B19: cr971 (nucleic acid)
guide: B1 guide with G60C, G62T, G63A, A65T, C67A, C69G, A77G, T81C
modifications: listed as DNA, chemistry not fully specified
Under setting [1], B19 gave a Mean relative activity of 1.017.

B20: cr655 (nucleic acid)
guide: B1 guide with T54C, G60C, G62T, C67A, C69G, A77G, T81C
modifications: listed as DNA, chemistry not fully specified
Consider B20, for which, under setting [1], the Mean relative activity is reported as 1.016.

B21: cr619 (nucleic acid)
guide: B1 guide with G60C, G62T, A64G, C67A, C69G, A77G, T81C
modifications: listed as DNA, chemistry not fully specified
Consider B21, for which the Mean relative activity under setting [1] is given as 1.015.

B22: cr592 (nucleic acid)
guide: B1 guide with C45T, G48A, G60C, G62T, C67A, C69G, A77G, T81C
modifications: listed as DNA, chemistry not fully specified
Turning to B22, the Mean relative activity under setting [1] is 1.017.

B23: cr366 (nucleic acid)
guide: B1 guide with A59G, G60C, G62T, C67A, C69G, T70C, C76T, A77G, T81C, G82A
modifications: listed as DNA, chemistry not fully specified
For B23, the Mean relative activity under setting [1] was found to be 1.017.

B24: cr603 (nucleic acid)
guide: B1 guide with G60C, G62T, A65G, A66C, C67A, C69G, A77G, T81C
modifications: listed as DNA, chemistry not fully specified
Under setting [1], B24 registered a Mean relative activity of 1.018.

B25: cr820 (nucleic acid)
guide: B1 guide with G60C, A65G, C69G, A77G, T81C
modifications: listed as DNA, chemistry not fully specified
In the case of B25, the Mean relative activity under setting [2] worked out at 1.072.

B26: cr561 (nucleic acid)
guide: B1 guide with A47T, G60C, G62T, C67A, C69G, A77G, T81C
modifications: listed as DNA, chemistry not fully specified
B26 returned a Mean relative activity under setting [1] of 1.021.

B27: cr018 (nucleic acid)
guide: B1 guide with G7A, G60C, G62T, C67A, C69G, A77G, T81C
modifications: listed as DNA, chemistry not fully specified
Under setting [1], B27 gave a Mean relative activity of 1.017.

B28: cr234 (nucleic acid)
guide: B1 guide with G60C, G62C, C67A, C69G, A77G, T81C
modifications: listed as DNA, chemistry not fully specified
On to B28, for which the Mean relative activity under setting [2] is on record as 1.075.

B29: cr898 (nucleic acid)
guide: B1 guide with A32C, G60C, G62T, A65G, C67A, C69G, A77G, T81C
modifications: listed as DNA, chemistry not fully specified
Turning to B29, the Mean relative activity under setting [1] is reported as 1.014.

B30: cr941 (nucleic acid)
guide: B1 guide with G60A, C69T, G72A, A77G, T81C, C86T
modifications: listed as DNA, chemistry not fully specified
Take B30: the Mean relative activity under setting [1] worked out at 1.016.

B31: cr925 (nucleic acid)
guide: B1 guide with A59T, G60C, T61G, G62A, C67T, A68C, C69G, T70A, A77G, T81C
modifications: listed as DNA, chemistry not fully specified
The molecule B31 showed a Mean relative activity under setting [2] of 1.084.

B32: cr464 (nucleic acid)
guide: B1 guide with A59C, G60C, G62T, C67A, C69G, T70G
modifications: listed as DNA, chemistry not fully specified
B32 yielded a Mean relative activity under setting [1] of 1.017.

B33: cr600 (nucleic acid)
guide: B1 guide with G62T, A65G, C67A, A77G, T81C
modifications: listed as DNA, chemistry not fully specified
Under setting [1], B33 gave a Mean relative activity of 1.021.

B34: cr494 (nucleic acid)
guide: B1 guide with G60C, G62T, C67T, C69G, A77G, T81C
modifications: listed as DNA, chemistry not fully specified
For B34, the Mean relative activity under setting [1] turned out to be 1.016.

B35: cr239 (nucleic acid)
guide: B1 guide with T53C, G60C, G62T, A64T, C67A, C69G, A77G, T81C
modifications: listed as DNA, chemistry not fully specified
B35 had a Mean relative activity under setting [1] of 1.014.

B36: cr801 (nucleic acid)
guide: GTTTAAGAGCTAAGCTGGAAACAGCATAGCAAGTTTAAATAAGGCTAGTCCGTTATCAGCTTGAAAAAGCGGAAGCGAGTCGCTTCT
modifications: listed as DNA, chemistry not fully specified
B36 registered a Mean relative activity under setting [1] of 1.02.

B37: cr730 (nucleic acid)
guide: B36 guide with G59A, C70T, A73G, A74G, T84C, T85C
modifications: listed as DNA, chemistry not fully specified
On to B37, for which the Mean relative activity under setting [1] was 1.018.

B38: cr354 (nucleic acid)
guide: B36 guide with G72A, A73T, G75C, C83G, T85A, C86T
modifications: listed as DNA, chemistry not fully specified
Under setting [1], B38 had a Mean relative activity of 1.016.

B39: cr302 (nucleic acid)
guide: B36 guide with G59A, T61G, A68C, C70T, A73T, A74C, G75C, C83G, T84G, T85A
modifications: listed as DNA, chemistry not fully specified
In the case of B39, under setting [1], the Mean relative activity came out at 1.016.
